This passage reports binding result and IC50 results from US20080312141 (published 2008).

One experiment deals with hK2 (human, UniProt P20151). Nature of the experiment: other, IFMA.
Another experiment addresses trypsin. Nature of the experiment: other, IFMA.
Another experiment deals with T1, cathepsin G (human, UniProt P08311).
T1 chain: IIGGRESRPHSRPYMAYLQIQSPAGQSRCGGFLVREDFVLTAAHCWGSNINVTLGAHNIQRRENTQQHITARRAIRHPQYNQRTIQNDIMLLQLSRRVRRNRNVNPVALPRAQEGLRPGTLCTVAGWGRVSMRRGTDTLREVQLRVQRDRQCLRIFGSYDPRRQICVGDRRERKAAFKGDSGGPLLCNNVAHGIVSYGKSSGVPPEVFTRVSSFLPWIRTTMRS
Nature of the experiment: other, IFMA.

The target in experiment [1] is T2, PSA (human, UniProt P07288). Kind of experiment: competition, IFMA with free PSA.
Experiment [2] concerns the target T2, PSA. Kind of experiment: other, IFMA.

No end group written: not given here.

T2 sequence (P07288 25-261): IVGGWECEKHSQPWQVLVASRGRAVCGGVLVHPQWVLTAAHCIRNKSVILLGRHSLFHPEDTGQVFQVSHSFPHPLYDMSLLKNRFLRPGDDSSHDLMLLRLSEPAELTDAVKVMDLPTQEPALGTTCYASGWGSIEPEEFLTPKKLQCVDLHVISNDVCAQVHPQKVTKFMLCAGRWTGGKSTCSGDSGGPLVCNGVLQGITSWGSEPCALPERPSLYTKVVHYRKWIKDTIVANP
Chain of hK2 (P20151 25-261): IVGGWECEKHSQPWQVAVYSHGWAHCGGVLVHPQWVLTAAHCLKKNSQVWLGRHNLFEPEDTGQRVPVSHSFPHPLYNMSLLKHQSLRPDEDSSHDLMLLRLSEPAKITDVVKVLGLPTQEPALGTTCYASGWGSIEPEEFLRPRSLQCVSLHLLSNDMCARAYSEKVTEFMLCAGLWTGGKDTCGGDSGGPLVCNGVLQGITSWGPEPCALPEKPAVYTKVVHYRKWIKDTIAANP

B1: GST-C-4 (peptide)
chain: CVAYCIEHHCWTC
With B1, the binding result in the experiment with hK2, with trypsin and with cathepsin G was “no binding” each time. For the same molecule, in the experiment with PSA [1], the half-maximal inhibitory concentration (IC50) (as a rule, the concentration that gives 50% inhibition) is 0.7 nM.

B2: GST-D-1 (peptide)
chain: CLSTCAQSCRISC
modifications: not fully specified (bridges); cysteine pairing not given here; also: GST fusion protein
As for B2, in the experiment with PSA [2], the binding result was “no binding”.
